# Target: αvβ5 integrin isolated from human placental extract (human, UniProt P06756 31-1048; P18084 24-799)
# Assay: phage panning on coated integrin
# Protocol: (§1) In the first panning, the integrins were coated at 5 µg per well, and the library pool was incubated for 4 hours at 25° C. in TBS buffer containing 1% bovine serum albumin and 1 mM MnCl_2 (α_5β_1, α_vβ_3) 1 mM MgCl_2 ($\alphaIIb\beta_3$) or 1 mM CaCl_2 (α_vβ_5).
# Sequence of αvβ5 integrin isolated from human placental extract (P06756 31-1048, chain 1 of 2): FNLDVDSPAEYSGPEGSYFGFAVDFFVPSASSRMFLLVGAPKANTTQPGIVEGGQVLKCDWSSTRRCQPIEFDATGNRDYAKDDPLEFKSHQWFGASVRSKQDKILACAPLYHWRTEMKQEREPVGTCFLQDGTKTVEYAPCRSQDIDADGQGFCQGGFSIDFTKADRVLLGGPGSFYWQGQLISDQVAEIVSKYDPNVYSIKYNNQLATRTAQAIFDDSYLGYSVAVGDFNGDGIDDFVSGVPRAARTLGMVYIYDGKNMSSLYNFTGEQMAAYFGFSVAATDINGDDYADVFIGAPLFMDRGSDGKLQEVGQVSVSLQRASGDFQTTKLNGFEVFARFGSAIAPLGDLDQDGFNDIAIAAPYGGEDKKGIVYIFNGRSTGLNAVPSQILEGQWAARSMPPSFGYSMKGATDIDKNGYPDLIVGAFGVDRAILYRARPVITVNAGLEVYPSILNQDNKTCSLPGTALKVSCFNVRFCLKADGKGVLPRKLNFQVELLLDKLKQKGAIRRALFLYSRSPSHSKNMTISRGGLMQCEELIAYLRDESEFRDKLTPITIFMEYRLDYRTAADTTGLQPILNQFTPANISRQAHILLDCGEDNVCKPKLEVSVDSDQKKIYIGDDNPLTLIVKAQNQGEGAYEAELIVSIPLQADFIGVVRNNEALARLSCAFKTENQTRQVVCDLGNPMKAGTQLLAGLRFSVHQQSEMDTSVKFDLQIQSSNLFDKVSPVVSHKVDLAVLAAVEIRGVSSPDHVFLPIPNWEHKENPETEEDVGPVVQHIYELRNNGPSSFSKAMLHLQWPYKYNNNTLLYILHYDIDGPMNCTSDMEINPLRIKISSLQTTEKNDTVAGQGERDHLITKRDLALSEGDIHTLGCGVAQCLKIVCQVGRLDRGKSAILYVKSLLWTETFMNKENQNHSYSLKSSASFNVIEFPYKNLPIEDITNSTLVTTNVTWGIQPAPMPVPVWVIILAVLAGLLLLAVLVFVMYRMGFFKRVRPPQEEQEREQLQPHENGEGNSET
# Sequence of αvβ5 integrin isolated from human placental extract (P18084 24-799, chain 2 of 2): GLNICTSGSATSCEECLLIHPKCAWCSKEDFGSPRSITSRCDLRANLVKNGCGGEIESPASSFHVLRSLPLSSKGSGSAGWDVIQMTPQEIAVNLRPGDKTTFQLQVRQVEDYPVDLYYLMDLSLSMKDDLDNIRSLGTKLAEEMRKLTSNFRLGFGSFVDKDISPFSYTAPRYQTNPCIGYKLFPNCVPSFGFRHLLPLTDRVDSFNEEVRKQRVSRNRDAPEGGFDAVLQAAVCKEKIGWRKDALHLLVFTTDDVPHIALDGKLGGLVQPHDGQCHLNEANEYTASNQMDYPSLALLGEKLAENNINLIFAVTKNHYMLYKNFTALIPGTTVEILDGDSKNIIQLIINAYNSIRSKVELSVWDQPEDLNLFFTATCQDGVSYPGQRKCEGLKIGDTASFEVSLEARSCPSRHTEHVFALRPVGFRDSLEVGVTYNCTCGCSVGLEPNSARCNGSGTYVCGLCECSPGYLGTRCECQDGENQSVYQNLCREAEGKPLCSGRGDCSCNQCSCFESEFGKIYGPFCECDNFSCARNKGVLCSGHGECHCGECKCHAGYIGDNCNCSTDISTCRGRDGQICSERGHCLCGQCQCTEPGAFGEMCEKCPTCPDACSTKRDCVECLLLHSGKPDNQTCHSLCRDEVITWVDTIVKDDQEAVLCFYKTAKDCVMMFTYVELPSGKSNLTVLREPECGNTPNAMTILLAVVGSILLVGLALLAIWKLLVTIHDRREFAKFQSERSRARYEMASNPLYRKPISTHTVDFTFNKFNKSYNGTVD
row,Binder,binding result
1,"CYARGDSFC (on fuse 5 phage, fused to pIII) [CYARGDSFC phage]",binds
2,"CRGDVFLC (on fuse 5 phage, fused to pIII) [CRGDVFLC phage]",binds
3,"CEGRGDSFC (on fuse 5 phage, fused to pIII) [CEGRGDSFC phage]",binds
4,"CEPRGDSFC (on fuse 5 phage, fused to pIII) [CEPRGDSFC phage]",binds
5,"CWTRGDSFC (on fuse 5 phage, fused to pIII) [CWTRGDSFC phage]",binds

# Target: T1, αvβ3 integrin isolated from human placental extract (human, UniProt P06756 31-1048; P05106 27-788)
# T1 construct: isolated on GRGDSPK-Sepharose; said to be primarily αvβ3
# T1 sequence (P06756 31-1048, chain 1 of 2): as the sequence (P06756 31-1048, chain 1 of 2) above
# T1 sequence (P05106 27-788, chain 2 of 2): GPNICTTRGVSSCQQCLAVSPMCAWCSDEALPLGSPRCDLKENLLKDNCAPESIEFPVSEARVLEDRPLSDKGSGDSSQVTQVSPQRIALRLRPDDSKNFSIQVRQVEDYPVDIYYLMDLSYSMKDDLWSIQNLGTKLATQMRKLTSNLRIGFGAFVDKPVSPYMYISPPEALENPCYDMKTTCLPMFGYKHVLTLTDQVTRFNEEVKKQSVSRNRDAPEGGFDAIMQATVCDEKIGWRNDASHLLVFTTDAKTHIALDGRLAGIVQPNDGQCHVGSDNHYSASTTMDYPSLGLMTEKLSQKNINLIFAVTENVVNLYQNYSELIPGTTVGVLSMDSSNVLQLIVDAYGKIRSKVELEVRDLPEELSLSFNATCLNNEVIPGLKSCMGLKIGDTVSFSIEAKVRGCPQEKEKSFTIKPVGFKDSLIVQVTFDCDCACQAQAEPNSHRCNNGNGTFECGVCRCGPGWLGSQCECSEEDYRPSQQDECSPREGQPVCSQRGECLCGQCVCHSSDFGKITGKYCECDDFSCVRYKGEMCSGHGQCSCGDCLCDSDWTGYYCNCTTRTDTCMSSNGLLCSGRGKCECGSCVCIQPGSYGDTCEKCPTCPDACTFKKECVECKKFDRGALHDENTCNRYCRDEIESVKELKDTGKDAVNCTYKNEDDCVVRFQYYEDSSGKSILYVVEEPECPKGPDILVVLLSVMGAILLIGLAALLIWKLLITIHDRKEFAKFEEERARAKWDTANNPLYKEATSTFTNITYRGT
# Assay: phage panning on coated integrin
# Protocol: as §1
row,Binder,binding result
1,"CRGDNTFGC (on fuse 5 phage, fused to pIII) [CRGDNTFGC phage]",binds
2,"CARRLDAPC (on fuse 5 phage, fused to pIII) [CARRLDAPC phage]",binds
3,"CWRGDTPC (on fuse 5 phage, fused to pIII) [CWRGDTPC phage]",binds
4,"CRGDLAWVC (on fuse 5 phage, fused to pIII) [CRGDLAWVC phage]",binds
5,"CKTPGRLDC (on fuse 5 phage, fused to pIII) [CKTPGRLDC phage]",binds
6,"CLVLPSTGC (on fuse 5 phage, fused to pIII) [CLVLPSTGC phage]",binds
7,"CLRGDRVC (on fuse 5 phage, fused to pIII) [CLRGDRVC phage]",binds
8,"CWRGDRAC (on fuse 5 phage, fused to pIII) [CWRGDRAC phage]",binds
9,"CRGDSLRC (on fuse 5 phage, fused to pIII) [CRGDSLRC phage]",binds
10,"CRGDGRNC (on fuse 5 phage, fused to pIII) [CRGDGRNC phage]",binds
11,"CLSRGDVVC (on fuse 5 phage, fused to pIII) [CLSRGDVVC phage]",binds
12,"CPDLLAQSC (on fuse 5 phage, fused to pIII) [CPDLLAQSC phage]",binds
13,"CDRGDSQSC (on fuse 5 phage, fused to pIII) [CDRGDSQSC phage]",binds
14,"CYSLGFLVC (on fuse 5 phage, fused to pIII) [CYSLGFLVC phage]",binds
15,"CEVRGDRIC (on fuse 5 phage, fused to pIII) [CEVRGDRIC phage]",binds
16,"CSPRGDAGC (on fuse 5 phage, fused to pIII) [CSPRGDAGC phage]",binds
17,"CRGDHGTLC (on fuse 5 phage, fused to pIII) [CRGDHGTLC phage]",binds
18,"CSRGDTYLC (on fuse 5 phage, fused to pIII) [CSRGDTYLC phage]",binds
19,"CSRGDGAIC (on fuse 5 phage, fused to pIII) [CSRGDGAIC phage]",binds
20,"CGRGDSHHC (on fuse 5 phage, fused to pIII) [CGRGDSHHC phage]",binds
21,"CNARGDKLC (on fuse 5 phage, fused to pIII) [CNARGDKLC phage]",binds
22,"CRGDSHLQC (on fuse 5 phage, fused to pIII) [CRGDSHLQC phage]",binds
23,"CRGDAWPGC (on fuse 5 phage, fused to pIII) [CRGDAWPGC phage]",binds
24,"CRGDGIRFC (on fuse 5 phage, fused to pIII) [CRGDGIRFC phage]",binds
25,"CNIRGDKIC (on fuse 5 phage, fused to pIII) [CNIRGDKIC phage]",binds

row,Binder,binding result
1,"CRGDTVYAC (on fuse 5 phage, fused to pIII) [CRGDTVYAC phage]",binds
2,"CLRGDIANC (on fuse 5 phage, fused to pIII) [CLRGDIANC phage]",binds
3,"CAGRGDALC (on fuse 5 phage, fused to pIII) [CAGRGDALC phage]",binds
4,"CTRGDSIFC (on fuse 5 phage, fused to pIII) [CTRGDSIFC phage]",binds
5,"CRGDKGWNC (on fuse 5 phage, fused to pIII) [CRGDKGWNC phage]",binds
6,"CTRRGDATC (on fuse 5 phage, fused to pIII) [CTRRGDATC phage]",binds
7,"CWSISPYFC (on fuse 5 phage, fused to pIII) [CWSISPYFC phage]",binds
8,"CQARGDRPRC (on fuse 5 phage, fused to pIII) [CQARGDRPRC phage]",binds
9,"CNARGDGFC (on fuse 5 phage, fused to pIII) [CNARGDGFC phage]",binds
10,"CVRRGDAFC (on fuse 5 phage, fused to pIII) [CVRRGDAFC phage]",binds
11,"CTTRGDSFC (on fuse 5 phage, fused to pIII) [CTTRGDSFC phage]",binds
12,"CTTRSDSFC (on fuse 5 phage, fused to pIII) [CTTRSDSFC phage]",binds
13,"CISRGDTFC (on fuse 5 phage, fused to pIII) [CISRGDTFC phage (αvβ3 selection)]",binds
14,"CPSRGDALC (on fuse 5 phage, fused to pIII) [CPSRGDALC phage]",binds
15,"CNRRGDNWGC (on fuse 5 phage, fused to pIII) [CNRRGDNWGC phage]",binds
16,"CTRGDSLDC (on fuse 5 phage, fused to pIII) [CTRGDSLDC phage]",binds
17,"CRVRGDSWC (on fuse 5 phage, fused to pIII) [CRVRGDSWC phage]",binds
18,"CVTRGDHFC (on fuse 5 phage, fused to pIII) [CVTRGDHFC phage]",binds
19,"CFRGDDRKC (on fuse 5 phage, fused to pIII) [CFRGDDRKC phage]",binds
20,"CRGDSFVGC (on fuse 5 phage, fused to pIII) [CRGDSFVGC phage]",binds
21,"CGRGDLIHC (on fuse 5 phage, fused to pIII) [CGRGDLIHC phage]",binds
22,"CSRGDGRC (on fuse 5 phage, fused to pIII) [CSRGDGRC phage]",binds
23,"CLRRGDSGC (on fuse 5 phage, fused to pIII) [CLRRGDSGC phage]",binds
24,"CPRGDSTLC (on fuse 5 phage, fused to pIII) [CPRGDSTLC phage]",binds
